In US20160151452A1 one finds Req (saturating resonance) data, which are given here for one molecule.

One test deals with EphB1-Fc. The test can be described thus: SPR, cupredoxin immobilised on CM5 chip, 100 nM Eph-Fc injected.
The next test has as its target EphA8-Fc. The description is as above.

Chain of EphB1-Fc (P09759 18-540): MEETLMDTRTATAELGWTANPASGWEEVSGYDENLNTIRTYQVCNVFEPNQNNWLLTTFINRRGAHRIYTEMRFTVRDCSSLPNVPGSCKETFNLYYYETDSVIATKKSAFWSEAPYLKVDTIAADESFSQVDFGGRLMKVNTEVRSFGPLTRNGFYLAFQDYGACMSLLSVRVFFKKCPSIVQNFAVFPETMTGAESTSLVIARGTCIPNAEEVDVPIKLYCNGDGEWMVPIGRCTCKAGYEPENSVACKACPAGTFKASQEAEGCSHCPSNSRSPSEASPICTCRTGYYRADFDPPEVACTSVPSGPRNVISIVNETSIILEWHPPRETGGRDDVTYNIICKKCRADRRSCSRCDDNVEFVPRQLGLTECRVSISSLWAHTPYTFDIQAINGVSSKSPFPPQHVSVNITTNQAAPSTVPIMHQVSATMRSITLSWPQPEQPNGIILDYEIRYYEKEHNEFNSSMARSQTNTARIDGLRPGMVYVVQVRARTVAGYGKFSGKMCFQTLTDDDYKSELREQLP
Chain of EphA8-Fc (O09127 27-541): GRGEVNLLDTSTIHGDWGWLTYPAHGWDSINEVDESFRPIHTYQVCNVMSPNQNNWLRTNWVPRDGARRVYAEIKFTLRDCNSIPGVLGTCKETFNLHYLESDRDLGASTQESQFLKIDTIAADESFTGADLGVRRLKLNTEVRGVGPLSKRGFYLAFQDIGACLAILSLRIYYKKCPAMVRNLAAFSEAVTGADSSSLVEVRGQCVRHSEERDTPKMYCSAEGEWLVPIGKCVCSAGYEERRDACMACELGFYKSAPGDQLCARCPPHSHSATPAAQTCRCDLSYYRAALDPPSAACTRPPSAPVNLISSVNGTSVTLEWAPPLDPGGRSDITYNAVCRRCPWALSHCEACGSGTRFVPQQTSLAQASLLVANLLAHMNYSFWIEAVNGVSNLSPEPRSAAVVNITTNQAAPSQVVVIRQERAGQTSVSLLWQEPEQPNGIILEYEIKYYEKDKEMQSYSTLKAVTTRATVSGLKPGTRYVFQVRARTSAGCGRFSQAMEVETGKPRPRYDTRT

B1: rusticyanin from Thiobacillus ferrooxidans (protein)
chain: GTLDTTWKEATLPQVKAMLEKDTGKVSGDTVTYSGKTVHVVAAAVLPGFPFPSFEVHDKKNPTLEIPAGATVDVTFINTNKGFGHSFDITKKGPPYAVMPVIDPIVAGTGFSPVPKDGKFGYTDFTWHPTAGTYYYVCQIPGHAATGMFGKIVVK
Consider B1, for which the Req (saturating resonance) in the test with EphB1-Fc and in the test with EphA8-Fc was 79 RU throughout.
